Source: patent US12144864B2, “Tubulysins and protein-tubulysin conjugates” (Regeneron Pharmaceuticals, Inc., priority 2018, dated 2024)

T1: STEAP2 endogenously expressed on C4-2 cells (human, UniProt Q8NFT2 1-490)
T1 sequence (looked up): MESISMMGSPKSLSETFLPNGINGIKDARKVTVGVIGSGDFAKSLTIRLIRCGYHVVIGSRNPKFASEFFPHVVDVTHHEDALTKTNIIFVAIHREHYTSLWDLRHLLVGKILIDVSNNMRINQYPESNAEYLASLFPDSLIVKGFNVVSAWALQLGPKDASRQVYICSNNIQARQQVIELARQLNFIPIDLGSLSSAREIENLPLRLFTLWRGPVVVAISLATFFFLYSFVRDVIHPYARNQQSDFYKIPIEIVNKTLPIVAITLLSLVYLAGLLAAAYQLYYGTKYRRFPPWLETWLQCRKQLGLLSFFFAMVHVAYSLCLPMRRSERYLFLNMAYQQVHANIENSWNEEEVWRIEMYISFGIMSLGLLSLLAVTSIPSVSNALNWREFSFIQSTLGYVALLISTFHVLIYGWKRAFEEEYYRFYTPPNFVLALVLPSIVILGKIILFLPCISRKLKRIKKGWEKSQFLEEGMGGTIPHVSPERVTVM


How the values were obtained:
[1] = system: STEAP2 positive C4-2 prostate cancer xenografts; assay: In vivo efficacy of anti-STEAP2 ADCs in C4-2 prostate cancer xenografts in SCID mice; parameters: species or system mouse; settings: single dose 2.5 mg/kg via tail vein; end of study
Description: To determine the in vivo efficacy of anti-STEAP2 antibodies conjugated to tubulysins, studies were performed in immunocompromised mice bearing STEAP2 positive C4-2 prostate cancer xenografts.
For the assay, 7.5×10^6 C4-2 cells (ATCC, Cat #CRL-3314), which endogenously express STEAP2, were suspended in Matrigel (BD Biosciences, Cat #354234) and implanted subcutaneously into the left flank of male CB17 SCID mice (Taconic, Hudson NY). Once tumors had reached an average volume of 220 mm^3 (around Day 15), mice were randomized into groups of 7 and given a single dose of either anti-STEAP2 conjugated antibodies (anti-STEAP2-LP3, anti-STEAP2-LP4, anti-STEAP2-MMAE), isotype control conjugated antibody, or vehicle at 2.5 mg/kg via tail vein injection. Tumors were measured with calipers twice a week until the average size of the vehicle group reached 1500 mm^3. Tumor size was calculated using the formula (length×width^2)/2 and the average tumor size+/−SEM was then calculated. Tumor growth inhibition was calculated according to the following formula: (1−((Tfinal−Tinitial)/(Cfinal−Cinitial)))*100, where treated group (T) and control group (C) represent the mean tumor mass on the day the vehicle group reached 1500 mm^3.

[2] = biological target: T1, STEAP2 endogenously expressed on C4-2 …; assay: cell-based or functional assay

| Molecule | Average Final Tumor size mm^3 (mean ± SEM) [1] | Average Tumor Growth Inhibition (%) [1] | % kill, C4-2 cells [2] | IC50 (nM), cytotoxicity in C4-2 cells (CellTiter-Glo) [2] |
| --- | --- | --- | --- | --- |
| Anti-STEAP2-MMAE (antibody, V domains shown, conjugated to MMAE (payload of LP8, reference linker-payload); site of conjugation and DAR not stated) VH: QVQLVESGGGVVQPGRSLRLSCVASGFTISSYGMNWVRQAPGKGLEWVAVISYDGGNKYSVDSVKGRFTISRDNSKNTLYLQMNSLRAEDSAVYYCARGRYFDLWGRGTLVTVSS VL: DIQMTQSPSTLSASVGDRVTITCRASQSISSWLAWYQQKPGRAPNLLISKASSLKSGVPSRFSGSGSGTEFTLTVSSLQPDDFATYYCQQYYSYSYTFGQGTKLEIK | 475 ± 118 mm^3 | 81% | 99% | 0.53 nM |
| Anti-STEAP2 N297Q Ab-LP4 (antibody, V domains shown, N297Q (EU numbering) in the heavy chain constant region; linker-payload LP4 (payload Ve) clicked to azido-PEG3-amine that transglutaminase put on heavy chain glutamines; DAR 3.8 (Table 7)) VH: QVQLVESGGGVVQPGRSLRLSCVASGFTISSYGMNWVRQAPGKGLEWVAVISYDGGNKYSVDSVKGRFTISRDNSKNTLYLQMNSLRAEDSAVYYCARGRYFDLWGRGTLVTVSS VL: DIQMTQSPSTLSASVGDRVTITCRASQSISSWLAWYQQKPGRAPNLLISKASSLKSGVPSRFSGSGSGTEFTLTVSSLQPDDFATYYCQQYYSYSYTFGQGTKLEIK |  |  | 99% | 0.15 nM |
| Anti-STEAP2-LP3 (conjugate) VH: QVQLVESGGGVVQPGRSLRLSCVASGFTISSYGMNWVRQAPGKGLEWVAVISYDGGNKYSVDSVKGRFTISRDNSKNTLYLQMNSLRAEDSAVYYCARGRYFDLWGRGTLVTVSS VL: DIQMTQSPSTLSASVGDRVTITCRASQSISSWLAWYQQKPGRAPNLLISKASSLKSGVPSRFSGSGSGTEFTLTVSSLQPDDFATYYCQQYYSYSYTFGQGTKLEIK | 115 ± 6 mm^3 | 108% |  |  |
